From paper PMC9499535, “Distinct architectural requirements for the parS centromeric sequence of the pSM19035 plasmid partition machinery”

Columns and labels:
[1] = target: ParApSM-His6 (non-fluorescent, wild-type) (Streptococcus pyogenes (plasmid pSM19035)) (UniProt Q57280)
[2] = target: ParApSM-His6 (non-fluorescent, wild-type) (Streptococcus pyogenes (plasmid pSM19035)) (UniProt Q57280); remark: listed apart in the source
[3] = target: ParApSM-His6 (non-fluorescent, wild-type) (Streptococcus pyogenes (plasmid pSM19035)) (UniProt Q57280); remark: listed apart in the source
[4] = target: ParApSM-His6 (non-fluorescent, wild-type) (Streptococcus pyogenes (plasmid pSM19035)) (UniProt Q57280); remark: listed apart in the source
[5] = target: ParApSM-GFP-His6 (Streptococcus pyogenes (plasmid pSM19035)) (UniProt Q57280); experiment: TIRF microscopy on an nsDNA-carpeted flow cell; ParApSM-GFP bound first to the nsDNA-carpet to ~10% of saturation, then washed with 1 μM ParBpSM-Alexa647 plus 166 nM 3R-parSpSM duplex; room temperature; 1 mM ATP; apparent constants
[6] = target: ParApSM^D60E-GFP-His6 (Streptococcus pyogenes (plasmid pSM19035)) (UniProt Q57280); experiment: TIRF microscopy on an nsDNA-carpeted flow cell; ParApSM^D60E-GFP (1 μM) bound first to the nsDNA-carpet, then washed with 250 nM ParBpSM-Alexa647 plus 3R-parSpSM duplex (125 nM heptad); room temperature; 1 mM ATP
[7] = target: ParApSM-GFP-His6 (Streptococcus pyogenes (plasmid pSM19035)) (UniProt Q57280); experiment: TIRF microscopy on an nsDNA-carpeted flow cell; ParApSM-GFP (1 μM) and ParBpSM-Alexa647 (1 μM) preincubated with 1 mM ATP without parSpSM, infused over the nsDNA-carpet for 15 min, then washed with ATP buffer without proteins; room temperature; apparent constants
[8] = target: ParApSM-GFP-His6 (Streptococcus pyogenes (plasmid pSM19035)) (UniProt Q57280); experiment: TIRF microscopy on an nsDNA-carpeted flow cell; ParApSM-GFP (1 μM) and ParBpSM-Alexa647 (1 μM) preincubated with 1 mM ATP and 7R-parSpSM (0.5 μM consensus repeats), infused over the nsDNA-carpet for 15 min, then washed with ATP buffer without proteins; room temperature; apparent constants
[9] = target: ParApSM^D60E-GFP-His6 (Streptococcus pyogenes (plasmid pSM19035)) (UniProt Q57280); experiment: TIRF microscopy on an nsDNA-carpeted flow cell; ParApSM^D60E-GFP (1 μM) bound first to the nsDNA-carpet, then washed with 250 nM ParBpSM-Alexa647 plus 36 nM 7R-parSpSM duplex; room temperature; 1 mM ATP; apparent constants
[10] = target: ParApSM-GFP-His6 (Streptococcus pyogenes (plasmid pSM19035)) (UniProt Q57280); experiment: TIRF microscopy on an nsDNA-carpeted flow cell; ParApSM-GFP bound first to the nsDNA-carpet to ~10% of saturation, then washed with 1 μM ParBpSM-Alexa647 plus 125 nM 4R-parSpSM duplex; room temperature; 1 mM ATP; apparent constants
[11] = target: ParApSM-GFP-His6 (Streptococcus pyogenes (plasmid pSM19035)) (UniProt Q57280); experiment: TIRF microscopy on an nsDNA-carpeted flow cell; ParApSM-GFP (1 μM) and ParBpSM-Alexa647 (1 μM) preincubated with 1 mM ATP and 4R-parSpSM (0.5 μM consensus repeats), infused over the nsDNA-carpet for 15 min, then washed with ATP buffer without proteins; room temperature; apparent constants
[12] = target: ParApSM-GFP-His6 (Streptococcus pyogenes (plasmid pSM19035)) (UniProt Q57280); experiment: TIRF microscopy on an nsDNA-carpeted flow cell; ParApSM-GFP bound first to the nsDNA-carpet to ~10% of saturation, then washed with 1 μM ParBpSM-Alexa647 plus 7R-parSpSM duplex; room temperature; 1 mM ATP; apparent constants
[13] = target: ParApSM-GFP-His6 (Streptococcus pyogenes (plasmid pSM19035)) (UniProt Q57280); experiment: TIRF microscopy on an nsDNA-carpeted flow cell; ParApSM-GFP (1 μM, 1 mM ATP) bound first to the nsDNA-carpet to ~10% of saturation, then washed with 1 μM ParBpSM-Alexa647 without parSpSM; room temperature; 50 mM Tris-HCl pH 7.4, 100 mM KCl, 2 mM MgCl2, 10% glycerol, 1 mM ATP; apparent constants
[14] = target: ParApSM^D60E-GFP-His6 (Streptococcus pyogenes (plasmid pSM19035)) (UniProt Q57280); experiment: TIRF microscopy on an nsDNA-carpeted flow cell; ParApSM^D60E-GFP (1 μM) bound first to the nsDNA-carpet, then washed with 250 nM ParBpSM-Alexa647 plus 4R-parSpSM duplex (125 nM heptad); room temperature; 1 mM ATP
[15] = target: ParApSM-GFP-His6 (Streptococcus pyogenes (plasmid pSM19035)) (UniProt Q57280); experiment: TIRF microscopy on an nsDNA-carpeted flow cell; ParApSM-GFP (1 μM) and ParBpSM-Alexa647 (1 μM) preincubated with 1 mM ATP and 3R-parSpSM (0.5 μM consensus repeats), infused over the nsDNA-carpet for 15 min, then washed with ATP buffer without proteins; room temperature; apparent constants
[16] = target: T1, ParB_pSM19035 (ParBpSM, Omega) (plasmid pSM19035, UniProt Q57468 1-71); experiment: EMSA; 2 mM Mg2+; EMSA: 50 mM Tris-HCl pH 7.4, 100 mM KCl, 2 mM MgCl2, 1 mM DTT, room temperature 15 min, 0.05 nM 32P-DNA, 4-12% PAGE. TIRF binding to the salmon sperm DNA carpet (undefined sequence pool) and ATPase assays not listed; conditions: protein: recombinant; tags: none stated; chain copies: 2; label: 32P; blunt
T1 sequence: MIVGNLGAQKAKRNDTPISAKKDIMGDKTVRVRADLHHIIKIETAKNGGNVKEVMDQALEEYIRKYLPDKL

B1: ParBpSM wild-type (natural protein)
chain: T1 sequence
steady-state ParApSM ATPase turnover with ParBpSM, 3R-1nc-3R-parSpSM duplex and nsDNA, 37°C [1]: 8.3 h^–1
ParBpSM concentration at which the ParApSM ATPase stimulation saturates, with parSpSM DNA of 1-3 repeats and nsDNA [2]: 2 µM
ParBpSM concentration for half-activation of the ParApSM ATPase at high 7R-parSpSM concentration, with nsDNA [3]: 650 nM
steady-state ParApSM ATPase turnover with 8 μM ParBpSM, scrambled-sequence duplex and nsDNA (pBR322), 37°C [4]: 2.4 h^–1
steady-state ParApSM ATPase turnover with ParBpSM, 7R-parSpSM duplex and nsDNA (pBR322), 37°C [4]: 20.5 h^–1

B2: ParBpSM-Alexa647 (ParBpSM-GCE, 1% labeled) (natural protein)
chain: T1 sequence
modifications: Alexa647 maleimide on the added cysteine (73C); 1% of the protein labelled
ParBpSM/ParApSM ratio on the nsDNA-carpet (ParBpSM/ParApSM) [5]: 1.3
apparent koff-fast (~24%) of ParBpSM from the ParApSM-bound nsDNA-carpet (ParBpSM and 3R-parSpSM in the wash) [5]: 1.4 min^–1
apparent koff-slow of ParBpSM from the ParApSM-bound nsDNA-carpet (ParBpSM and 3R-parSpSM in the wash) [5]: 0.05 min^–1
ParBpSM/ParApSM ratio on the nsDNA-carpet at the initial ParBpSM overshoot peak (ParBpSM/ParApSM) [6]: 0.6
ParBpSM density on the nsDNA-carpet relative to ParApSM after 15 min of infusion (ParBpSM/ParApSM) [7]: 0.67
koff of the fast-dissociating majority (~75%) of ParBpSM [7]: 7 min^–1
ParBpSM/ParApSM ratio accumulated on the nsDNA-carpet (ParBpSM/ParApSM) [8]: 1.2
koff-fast-B (~70%) [8]: 1.1 min^–1
koff-slow-B [8]: 0.13 min^–1
ParBpSM/ParApSM ratio on the nsDNA-carpet at the initial ParBpSM overshoot peak (ParBpSM/ParApSM) [9]: 1.75
apparent koff of ParBpSM from the ParApSM^D60E-bound nsDNA-carpet after its peak (ParBpSM and 7R-parSpSM in the wash) [9]: 0.036 min^–1
ParBpSM/ParApSM molar ratio on the nsDNA-carpet at the start of the dissociation burst (ParBpSM/ParApSM) [10]: 1.7
apparent koff of ParBpSM from the ParApSM-bound nsDNA-carpet after its peak (ParBpSM and 4R-parSpSM in the wash) [10]: 3.9 min^–1
ParBpSM/ParApSM ratio on the nsDNA-carpet at the end of 15 min of infusion (ParBpSM/ParApSM) [11]: 0.75
ParBpSM/ParApSM ratio on the nsDNA-carpet within 1 min of washing (ParBpSM/ParApSM) [11]: 0.5
koff-fast-B (66%) [11]: 1.9 min^–1
koff-slow-B [11]: 0.23 min^–1
ParBpSM density on the nsDNA-carpet relative to carpet-bound ParApSM [12]: 2 fold
ParBpSM/ParApSM molar ratio on the nsDNA-carpet at the start of the dissociation burst (ParBpSM/ParApSM) [12]: 2.8
apparent koff of ParBpSM from the ParApSM-bound nsDNA-carpet after its peak (ParBpSM and 7R-parSpSM in the wash) [12]: 2.4 min^–1
ParBpSM/ParApSM ratio on the nsDNA-carpet after several min of washing (ParBpSM/ParApSM) [13]: 1
peak density on the ParApSM-bound nsDNA-carpet [13]: 3000 dimers/μm^2
plateau density on the ParApSM-bound nsDNA-carpet [13]: 2000 dimers/μm^2
ParBpSM/ParApSM ratio on the nsDNA-carpet at the initial ParBpSM overshoot peak (ParBpSM/ParApSM) [14]: 1.3
ParBpSM density on the nsDNA-carpet relative to ParApSM after 15 min of infusion (ParBpSM/ParApSM) [15]: 0.67
koff of the fast-dissociating majority (~75%) of ParBpSM [15]: 4 min^–1

B3: scrambled 55 bp (nsDNA) (dsDNA)
DNA 1: GGGATCAAACACTTGATAGACAAGTCTTTGACCTAATTGTGAAAATTATGAAGGG
DNA 2: CCCTTCATAATTTTCACAATTAGGTCAAAGACTTGTCTATCAAGTGTTTGATCCC
Kd [16]: ~1 µM
